Where a chain is given by its changes, count along the chain named. Blank lines part the entries; values can stand above or below the binder they belong to.
Columns and labels:
[1] = target: T1, human BCMA on BCMA expressing cell lines (human, UniProt Q02223 1-184); test: cell-based or functional assay
T1 sequence: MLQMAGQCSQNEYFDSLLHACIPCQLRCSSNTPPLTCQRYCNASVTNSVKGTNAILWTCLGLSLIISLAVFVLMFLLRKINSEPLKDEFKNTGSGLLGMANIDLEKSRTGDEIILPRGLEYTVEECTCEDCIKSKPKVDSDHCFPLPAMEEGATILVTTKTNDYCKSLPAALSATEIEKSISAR

human BCMA protein = target: T2, human BCMA protein (human, UniProt Q02223 1-54, limits assumed); test: affinity to human BCMA protein, method not stated
T2 sequence: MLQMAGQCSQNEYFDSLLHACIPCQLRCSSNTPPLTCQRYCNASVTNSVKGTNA

B1: BCMA targeting trispecific protein 253BH10 (other, not shown: large carriers; small tags and cut ends)
VHH: QVQLVESGGGLVQPGESLRLSCAASTNIFSISPMGWYRQAPGKQRELVAAIHGFSTLYADSVKGRFTISRDNAKNTIYLQMNSLKPEDTAVYYCNKVPWGDYHPRNVYWGQGTQVTVSS
notes: trispecific; described as a molecule with the parental CDRs; also called BH253
TDCC EC50 (EJM cells) [1]: 0.0529 nM
Kd (human BCMA protein): 27.7 nM

B2: BCMA targeting trispecific protein 01B04 (other)
VHH: B1 VHH with Q1E, E16R, R19T, I28D, F54K, T76S, K85R, V91L, Y108K
notes: trispecific; not shown: anti-albumin domain, anti-CD3 domain and the linkers of the trispecific (TriTAC) chain; the C-terminal 6xHis tag follows these missing domains and is left out
TDCC EC50 (EJM cells) [1]: 0.0161 nM
Kd (human BCMA protein): 18.6 nM

B3: BCMA targeting trispecific protein 01B07 (other, not shown: large carriers; small tags and cut ends)
VHH: B1 VHH with Q1E, E16R, R19T, I31R, F54N, T76S, K85R, V91L, D101I
notes: trispecific
TDCC EC50 (EJM cells) [1]: 0.174 nM
Kd (human BCMA protein): 43.9 nM

B4: BCMA targeting trispecific protein 01C04 (other)
VHH: B1 VHH with Q1E, E16R, R19T, F29P, F54D, T76S, K85R, V91L
notes: as for B2
TDCC EC50 (EJM cells) [1]: 0.0175 nM
Kd (human BCMA protein): 21.6 nM

B5: BCMA targeting trispecific protein 01D07 (other, not shown: large carriers; small tags and cut ends)
VHH: B1 VHH with Q1E, E16R, R19T, I31A, F54S, T76S, K85R, V91L, Y108N
notes: trispecific
TDCC EC50 (EJM cells) [1]: 0.0196 nM
Kd (human BCMA protein): 19.3 nM

B7: BCMA targeting trispecific protein 01C02 (other)
VHH: B1 VHH with Q1E, E16R, R19T, F29E, F54N, T76S, K85R, V91L, D101R
notes: trispecific; not shown: The C-terminal 6xHis tag is left out because it follows these missing domains
TDCC EC50 (EJM cells) [1]: 0.0373 nM
Kd (human BCMA protein): 20 nM

B8: BCMA targeting trispecific protein 01A02 (other, not shown: large carriers; small tags and cut ends)
VHH: B1 VHH with Q1E, E16R, R19T, I31S, H52N, T76S, K85R, V91L, Y108H
notes: trispecific
TDCC EC50 (EJM cells) [1]: 0.0218 nM
Kd (human BCMA protein): 21.5 nM

B9: BCMA targeting trispecific protein 01D03 (other)
VHH: B1 VHH with Q1E, E16R, R19T, I31N, F54D, T76S, K85R, V91L, Y108R
notes: trispecific; not shown: anti-albumin domain, anti-CD3 domain and the linkers of the trispecific (TriTAC) format
TDCC EC50 (EJM cells) [1]: 0.0149 nM
Kd (human BCMA protein): 20.9 nM

B11: BCMA targeting trispecific protein 01D05 (other)
VHH: B1 VHH with Q1E, E16R, R19T, I31D, F54T, T76S, K85R, V91L
notes: as for B2
TDCC EC50 (EJM cells) [1]: 0.0166 nM
Kd (human BCMA protein): 17.8 nM

B12: BCMA targeting trispecific protein 01B02 (other)
VHH: B1 VHH with Q1E, E16R, R19T, F29T, H52S, T76S, K85R, V91L, K96E
notes: trispecific; not shown: anti-albumin domain, anti-CD3 domain and the linkers of the trispecific; the C-terminal His6 that follows them is left out
TDCC EC50 (EJM cells) [1]: 0.359 nM
Kd (human BCMA protein): 18.8 nM

B13: BCMA targeting trispecific protein 01A09 (other, not shown: large carriers; small tags and cut ends)
VHH: B1 VHH with Q1E, E16R, R19T, S32T, F54R, T76S, K85R, V91L, D101S
notes: trispecific
TDCC EC50 (EJM cells) [1]: 0.0484 nM
Kd (human BCMA protein): 23.9 nM

B14: BCMA targeting trispecific protein 01C06 (other, not shown: large carriers; small tags and cut ends)
VHH: B1 VHH with Q1E, E16R, R19T, F54D, T76S, K85R, V91L, D101K
notes: trispecific
TDCC EC50 (EJM cells) [1]: 0.0251 nM
Kd (human BCMA protein): 18.8 nM

B15: BCMA targeting trispecific protein 01B01 (other, not shown: large carriers; small tags and cut ends)
VHH: B1 VHH with Q1E, E16R, R19T, F29P, F54E, T76S, K85R, V91L, Y108A
notes: trispecific
TDCC EC50 (EJM cells) [1]: 0.0195 nM
Kd (human BCMA protein): 19.9 nM

B16: BCMA targeting trispecific protein 01D04 (other)
VHH: B1 VHH with Q1E, E16R, R19T, F29T, F54V, T76S, K85R, V91L, Y108Q
notes: as for B2
TDCC EC50 (EJM cells) [1]: 0.016 nM
Kd (human BCMA protein): 18.9 nM

B17: BCMA targeting trispecific protein 01H06 (other, not shown: large carriers; small tags and cut ends)
VHH: B1 VHH with Q1E, E16R, R19T, N27S, I28D, S55E, T76S, K85R, V91L, R105G
TDCC EC50 (EJM cells) [1]: 0.001 nM

B18: BCMA targeting trispecific protein 01B03 (other, not shown: large carriers; small tags and cut ends)
VHH: B1 VHH with Q1E, E16R, R19T, I31K, F54K, T76S, K85R, V91L, Y108V
notes: trispecific
TDCC EC50 (EJM cells) [1]: 0.0964 nM
Kd (human BCMA protein): 26.2 nM

B21: BCMA targeting trispecific protein 01A01 (other, not shown: large carriers; small tags and cut ends)
VHH: B1 VHH with Q1E, E16R, R19T, N27D, F54G, T76S, K85R, V91L, Y108A
notes: trispecific
TDCC EC50 (EJM cells) [1]: 0.0264 nM
Kd (human BCMA protein): 21.3 nM

B22: BCMA targeting trispecific protein 01C07 (other, not shown: large carriers; small tags and cut ends)
VHH: B1 VHH with Q1E, E16R, R19T, S32Y, L57Y, T76S, K85R, V91L, D101S
notes: trispecific
TDCC EC50 (EJM cells) [1]: 0.0833 nM
Kd (human BCMA protein): 19.8 nM

B24: BCMA targeting trispecific protein 01B12 (other, not shown: large carriers; small tags and cut ends)
VHH: B1 VHH with Q1E, E16R, R19T, I31T, S55Q, T76S, K85R, V91L, Y108V
notes: trispecific
TDCC EC50 (EJM cells) [1]: 0.0273 nM
Kd (human BCMA protein): 20.7 nM

B28: BCMA targeting trispecific protein 01A04 (other, not shown: large carriers; small tags and cut ends)
VHH: B1 VHH with Q1E, E16R, R19T, S30M, F54D, T76S, K85R, V91L, D101R
notes: trispecific
TDCC EC50 (EJM cells) [1]: 0.159 nM
Kd (human BCMA protein): 37.5 nM

B29: BCMA targeting trispecific protein 01A03 (other, not shown: large carriers; small tags and cut ends)
VHH: B1 VHH with Q1E, E16R, R19T, M34G, F54S, T76S, K85R, V91L
notes: trispecific
TDCC EC50 (EJM cells) [1]: 0.0461 nM
Kd (human BCMA protein): 30.8 nM

B31: BCMA targeting trispecific protein 01D10 (other)
VHH: B1 VHH with Q1E, E16R, R19T, I31A, F54S, T76S, K85R, V91L, D101R
notes: as for B12
TDCC EC50 (EJM cells) [1]: 0.453 nM
Kd (human BCMA protein): 53.9 nM

B32: BCMA targeting trispecific protein 01C08 (other, not shown: large carriers; small tags and cut ends)
VHH: B1 VHH with Q1E, E16R, R19T, I31N, F54G, T76S, K85R, V91L, Y108H
notes: trispecific
TDCC EC50 (EJM cells) [1]: 0.0457 nM
Kd (human BCMA protein): 28.3 nM

B36: BCMA targeting trispecific protein 01C10 (other, not shown: large carriers; small tags and cut ends)
VHH: B1 VHH with Q1E, E16R, R19T, F29S, T76S, K85R, V91L, D101Y
notes: trispecific
TDCC EC50 (EJM cells) [1]: 0.208 nM
Kd (human BCMA protein): 46.4 nM

B38: BCMA targeting trispecific protein 01B08 (other, not shown: large carriers; small tags and cut ends)
VHH: B1 VHH with Q1E, E16R, R19T, F29E, F54S, T76S, K85R, V91L, D101R
notes: trispecific
TDCC EC50 (EJM cells) [1]: 0.0876 nM
Kd (human BCMA protein): 25.6 nM

Continued by falling Kd (human BCMA protein), values first:

TDCC EC50 (EJM cells) [1]: 0.0151 nM
Kd (human BCMA protein): 17 nM
B10: BCMA targeting trispecific protein 01A05 (other)
VHH: B1 VHH with Q1E, E16R, R19T, I31S, T76S, K85R, V91L
notes: as for B9

TDCC EC50 (EJM cells) [1]: 0.011 nM
Kd (human BCMA protein): 15.8 nM
B30: BCMA targeting trispecific protein 01A06 (other)
VHH: B1 VHH with Q1E, E16R, R19T, S32R, L57V, T76S, K85R, V91L
notes: trispecific; not shown: the C-terminal 6xHis tag follows those missing domains and is left out

TDCC EC50 (EJM cells) [1]: 0.0135 nM
Kd (human BCMA protein): 14.9 nM
B27: BCMA targeting trispecific protein 01D06 (other)
VHH: B1 VHH with Q1E, E16R, R19T, I31R, F54D, T76S, K85R, V91L, Y108T
notes: as for B9

TDCC EC50 (EJM cells) [1]: 0.00425 nM
Kd (human BCMA protein): 11.7 nM
B20: BCMA targeting trispecific protein 01A08 (other, not shown: large carriers; small tags and cut ends)
VHH: B1 VHH with Q1E, E16R, R19T, I31S, F54E, T76S, K85R, V91L, N106K
notes: trispecific

TDCC EC50 (EJM cells) [1]: 0.00527 nM
Kd (human BCMA protein): 11.2 nM
B25: BCMA targeting trispecific protein 01B09 (other, not shown: large carriers; small tags and cut ends)
VHH: B1 VHH with Q1E, E16R, R19T, T26S, F54S, T76S, K85R, V91L, R105G
notes: trispecific

TDCC EC50 (EJM cells) [1]: 0.00697 nM
Kd (human BCMA protein): 9.1 nM
B35: BCMA targeting trispecific protein 01B06 (other)
VHH: B1 VHH with Q1E, E16R, R19T, F54D, T76S, K85R, V91L, D101E
notes: as for B30

TDCC EC50 (EJM cells) [1]: 0.00225 nM
Kd (human BCMA protein): 7.35 nM
B34: BCMA targeting trispecific protein 01D02 (other)
VHH: B1 VHH with Q1E, E16R, R19T, F29V, F54K, T76S, K85R, V91L, R105G
notes: trispecific; not shown: the C-terminal His6 follows those missing domains and is left out

TDCC EC50 (EJM cells) [1]: 0.00267 nM
Kd (human BCMA protein): 7.29 nM
B6: BCMA targeting trispecific protein 01E04 (other, not shown: large carriers; small tags and cut ends)
VHH: B1 VHH with Q1E, E16R, R19T, F29A, F54T, T76S, K85R, V91L, R105G
notes: trispecific

TDCC EC50 (EJM cells) [1]: 0.00249 nM
Kd (human BCMA protein): 6.95 nM
B19: BCMA targeting trispecific protein 01A07 (other)
VHH: B1 VHH with Q1E, E16R, R19T, F29S, F54T, T76S, K85R, V91L, R105G
notes: as for B34

TDCC EC50 (EJM cells) [1]: 0.00133 nM
Kd (human BCMA protein): 6.52 nM
B26: BCMA targeting trispecific protein 01C01 (other, not shown: large carriers; small tags and cut ends)
VHH: B1 VHH with Q1E, E16R, R19T, F29V, F54H, T76S, K85R, V91L, R105G
notes: trispecific

TDCC EC50 (EJM cells) [1]: 0.00301 nM
Kd (human BCMA protein): 6.52 nM
B37: BCMA targeting trispecific protein 01B05 (other, not shown: large carriers; small tags and cut ends)
VHH: B1 VHH with Q1E, E16R, R19T, F29T, S55E, T76S, K85R, V91L, R105G
notes: trispecific

TDCC EC50 (EJM cells) [1]: 0.00298 nM
Kd (human BCMA protein): 6.36 nM
B33: BCMA targeting trispecific protein 01E03 (other, not shown: large carriers; small tags and cut ends)
VHH: B1 VHH with Q1E, E16R, R19T, F29T, F54D, T76S, K85R, V91L, R105G
notes: trispecific

TDCC EC50 (EJM cells) [1]: 0.00307 nM
Kd (human BCMA protein): 6.09 nM
B23: BCMA targeting trispecific protein 01C05 (other, not shown: large carriers; small tags and cut ends)
VHH: B1 VHH with Q1E, E16R, R19T, I31S, S55K, T76S, K85R, V91R, R105G
notes: trispecific
